# Laboratory results from patent US20260126425A1.
# pKd: −log10 of the molar value.
# Columns and labels:
# [1] = molecular target: SARS-CoV-2 Spike protein (Spike trimer) (SARS-CoV-2) (UniProt P0DTC2)
# [2] = molecular target: SARS-CoV-2 Spike protein (Spike trimer) (SARS-CoV-2) (UniProt P0DTC2); remark: listed apart in the source
# [3] = molecular target: SARS-CoV-2 Spike protein (Spike trimer) (SARS-CoV-2) (UniProt P0DTC2); remark: listed apart in the source
substance,measurement,setting,value
Ty1-modified ClyA nanopore (ClyA-f-Ty1),pKd,[1],9.12
same,EC50 (read off the curve),[2],0.6 nM
same,constant fit of Log10(tin (ms)) against Spike protein concentration (pM),[3],1.48 Log10(ms)
